In patent US20260209387A1, “SINGLE-DOMAIN ANTIBODY FOR INHIBITION OF NEUTROPHIL ELASTASE ACTIVITY” (UNIVERSITE DE LIEGE, priority 2023, published 2026):

B1: NbE201: anti-hNE ISVD (VHH/nanobody) from immunized lama, amino acid sequence SEQ ID NO: 4 (protein)
VHH: QVQLQESGGGLVQAGGSLRLSCVVPGRTISLYRMGWFRQAPGKEREFVAGINWSGDMTDYVDSVKGRFTISRDNAKNTVYLEMNSLKPEDTAIYYCTADPKLLPLADSSYGYWGQGTQVTVSS
B2: NbE201-PEG40: NbE201-Cter conjugated via C-terminal cysteine to branched 40 kDa PEG-maleimide (conjugate)
VHH: QVQLQESGGGLVQAGGSLRLSCVVPGRTISLYRMGWFRQAPGKEREFVAGINWSGDMTDYVDSVKGRFTISRDNAKNTVYLEMNSLKPEDTAIYYCTADPKLLPLADSSYGYWGQGTQVTVSSSPSTPPTPSPSTPPC

How the values were obtained:
hNE = molecular target: T1, hNE (Homo sapiens, UniProt P08246); assay: hNE inhibitory capacity after physical stress; assay type: biochemical; conditions: hNE: Nb molar ratio 1:1, compared to unexposed ISVD
T1 construct: purchased Elastin Products Company (EPC)
T1 sequence (P08246 30-247): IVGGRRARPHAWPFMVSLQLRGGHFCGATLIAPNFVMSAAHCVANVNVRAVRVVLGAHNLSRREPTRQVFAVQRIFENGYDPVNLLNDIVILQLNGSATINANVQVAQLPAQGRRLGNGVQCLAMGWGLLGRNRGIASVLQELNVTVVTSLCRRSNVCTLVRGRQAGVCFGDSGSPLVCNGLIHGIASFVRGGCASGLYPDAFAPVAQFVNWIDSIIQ
Procedure: 2.2.1 Evaluation of the proteolytic activity inhibition on purified hNE. hNE activity was assessed by following the degradation of a chromogenic hNE substrate, N-succinyl-alanine-alanine-proline-valine-p-nitroanilide (suc-Ala-Ala-Pro-Val-pNA, Elastin products, Owensville, Missouri, USA), measuring the absorbance at 410 nm with a spectrophotometer (Spectramax ID5, Molecular Devices, San Jose, USA). The substrate was diluted to a concentration of 1.5 mM in a tris buffer (0.1M tris, 0.5M NaCl, 0.01% NaN3, pH 7.5) and 200 μl of this solution were added to the wells of a 96-well plate and heated at 37° C. Purified hNE (Elastin products) was reconstituted on ice in a 0.05M Sodium acetate (NaOAc), 0.1M NaCl buffer at pH5 to a concentration of 0.1 mg/ml. 10 μl of this hNE solution were added per well and the substrate degradation was followed during 20 min to verify the hNE activity in the wells. ISVDswere then added to the wells at the desired hNE: ISVD ratio, and the substrate degradation was then followed during 50 min. Slopes were calculated from the regression line drawn from the absorbance measurements and were expressed as a percentage of the hNE activity without ISVDs. […]

[1] = Aggregates detection by Nanoparticle Tracking Analysis; assay type: physicochemical; conditions: after nebulization; for average counted particles per frame (NTA): 0.25 mg/ml
Procedure: 2.3.5 Aggregates Detection. Protein aggregates were visualized by Nanoparticle Tracking Analysis (NTA) (ZetaView, 220 Twin Laser, Particle Metrix, Ammersee, Germany), a technique used for measuring single particle size and concentration. NbE201, NbE201-PEG10 and NbE201-PEG40 solutions (0.25 mg/ml) were analysed before and after nebulization. 11 positions were analysed for which following parameters were used: • Laser wavelength: 488 nm • Scatter, no fluorescence • Sensitivity: 80 • Shutter: 100

[2] = Spray-dried powder: concentration before/after centrifugation; assay type: physicochemical; conditions: spray-dried powder solubilized and dialysed; 10 000 g ten minutes
Procedure: Dry powders for inhalation were formulated with the NbE201 and the NbE201-PEG40. The spray dryer used was the PROCEPT's modular 4M8-Trix.
The integrity of the ISVD within the spray-dried powders was then evaluated after solubilizing the powders into water followed by a dialysis into phosphate buffer (50 mM, pH7). Protein concentration was measured by reading the absorbance at 280 nm before and after centrifugation at 10 000 g for ten minutes in order to detect the presence of insoluble aggregates.

[3] = molecular target: T2, proteolytic (elastase) activity of cystic fibrosis patient sputa (Homo sapiens, UniProt P08246); assay: Sputum proteolytic activity inhibition, cystic fibrosis sputa; assay type: biochemical
T2 construct: Sputa from patients with cystic fibrosis, COPD or ciliary diskenisia above 18 years old were collected; from tissue; host or cells: expectorated sputum of patients with cystic fibrosis, COPD or ciliary dyskinesia
T2 sequence (P08246 30-267): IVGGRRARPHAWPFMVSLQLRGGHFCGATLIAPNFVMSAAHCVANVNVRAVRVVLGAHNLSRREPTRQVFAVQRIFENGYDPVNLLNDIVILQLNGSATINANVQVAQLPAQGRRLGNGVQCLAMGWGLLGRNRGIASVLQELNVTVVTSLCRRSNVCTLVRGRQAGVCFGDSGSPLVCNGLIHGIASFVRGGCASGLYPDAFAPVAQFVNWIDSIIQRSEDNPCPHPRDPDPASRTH
Procedure: (§1) 2.2.2 Evaluation of the proteolytic activity inhibition in CF, COPD and ciliary diskenisia sputa. […] Sputa collection procedures were evaluated by the local ethic committee (comité d'Ethique Hospitalo-Facultaire des Cliniques universitaires Saint-Luc) and approved under the Belgian registration number B4032021000071.
(§2) Sputum proteolytic activity was assessed by following with a spectrophotometer the absorbance at 410 nm of suc-Ala-Ala-Pro-Val-pNA degradation, the chromogenic hNE substrate. Sputa were classified as mucoid, muco-purulent or purulent (Serisier et al., 2009, Respir Res, 10 (1): 63. doi: 10.1186/1465-9921-10-6). According to the experiment, 10 to 20 mg of sputum were weighted in a 96-well plate. ISVDs were then added to the sputum samples and pre-incubated at 37° C. during different periods of time. The hNE substrate was diluted to a concentration of 1 mM in a tris buffer (0.1M tris, 0.5M NaCl, 0.01% Sodium azide (NaN3), pH 7.5) and 50 μl of this solution were added to the wells. The substrate degradation was followed during 50 min. […] Slopes were then calculated from the regression line drawn from the absorbance measurements and were expressed as a percentage of the sputum proteolytic activity without ISVDs.

[4] = molecular target: T3, proteolytic activity of COPD patient sputum (Homo sapiens, UniProt P08246); assay: Sputum proteolytic activity inhibition, COPD sputum; assay type: biochemical; conditions: 15 mg sputum, COPD patient in exacerbation
T3 construct: Sputa from patients with cystic fibrosis, COPD or ciliary diskenisia above 18 years old were collected; from tissue; host or cells: expectorated sputum of patients with cystic fibrosis, COPD or ciliary dyskinesia
T3 sequence (P08246 30-267): T2 sequence (P08246 30-267)
Procedure: as §1, §2

| Molecule | loss of hNE inhibitory capacity after nebulization, agitation or F/T cycles (hNE) | average counted particles per frame (NTA) [1] | size of counted particles, percentile 10 [1] [nm] | size of counted particles, percentile 50 [1] [nm] | size of counted particles, percentile 90 [1] [nm] | concentration after centrifugation as % of concentration before centrifugation [2] [%] | inhibition of proteolytic activity in sputum samples ex vivo ([3]; cystic fibrosis sputa) | sputum inhibition capacity over time ([3]; exposure 0 to 24 h) | inhibitory capacity in COPD sputum [4] | sputum proteolytic activity inhibition at time 0, compared with NbE201 ([3]; exposure time 0) |
| --- | --- | --- | --- | --- | --- | --- | --- | --- | --- | --- |
| B1 | the greatest losses were observed with nebulization and 4 h of agitation | 228 | 22.3±12 | 138±8 | 342.8±26 | 53±3 | able to inhibit the proteolytic activity in sputum samples ex vivo | a loss of inhibitory capacity over time was observed | No apparent differences in inhibitory capacity | – |
| B2 | did not display any significant loss of inhibitory activity | far below that threshold | – | – | – | 97±2 | – | – | No apparent differences in inhibitory capacity | No significant difference |
